From article PMC7795613

Biological target: DDX3X 132-607 (human) (UniProt O00571)
Test: MST
Conditions: 20 nM labelled RNA, DDX3X 2-fold dilutions from 19 uM, 10 min at room temperature, measured at 25 C, assay buffer not stated (protein SEC buffer 50 mM …)

Chain of DDX3X 132-607 (human) (O00571 132-607): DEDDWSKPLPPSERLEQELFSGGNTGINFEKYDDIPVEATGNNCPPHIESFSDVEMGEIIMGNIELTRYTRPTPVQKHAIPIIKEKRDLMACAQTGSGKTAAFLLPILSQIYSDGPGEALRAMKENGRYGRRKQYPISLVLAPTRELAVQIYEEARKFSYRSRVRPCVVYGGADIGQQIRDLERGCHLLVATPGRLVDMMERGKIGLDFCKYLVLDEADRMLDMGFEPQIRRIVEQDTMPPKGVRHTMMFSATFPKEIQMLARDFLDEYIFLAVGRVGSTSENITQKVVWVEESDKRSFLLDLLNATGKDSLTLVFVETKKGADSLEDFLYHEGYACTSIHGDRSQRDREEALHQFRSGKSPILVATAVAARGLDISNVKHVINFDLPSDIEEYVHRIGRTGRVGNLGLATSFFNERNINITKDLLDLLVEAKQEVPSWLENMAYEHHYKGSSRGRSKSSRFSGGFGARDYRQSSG

GGAGAAGUUUUAUCGUGUGAACUUCUUGGCUUAGUAUCGUUGAGAAGAAUCGAGAGAUUAGUGCAGUUUAAACAGUUUUUUAGAACGGAAGAACAACCAUGACUAAAAAACCAGGAGGGCCCGGAAAAAACCGGGCCAUCAAUAUGCUGAAACGCGGAU [JEV 5' TR]
Kd: 1.66 µM

AGUUGUUACUGUUGCUGACUCAGACUGCGACAGUUCGAGUUUGAAGCGAAAGCUAGCAACAGUAUCAACAGGUUUUAUUUGGAUUUGGAAACGAGAGUUUCUGGUCAUGAAAAACCCAAAAAAGAAAUCCGGAGGAUUCCGGAUUGUCAAUAUGCUAAAACG [ZIKV 5' TR 1-163]
Kd: 7.05 µM
